Results from patent US20100130424A1 (Janssen / Centocor, published 2010).
No end group written: not given here.

T1: human CRH receptor type 2 (human, UniProt Q13324 1-411)
T1 sequence (looked up): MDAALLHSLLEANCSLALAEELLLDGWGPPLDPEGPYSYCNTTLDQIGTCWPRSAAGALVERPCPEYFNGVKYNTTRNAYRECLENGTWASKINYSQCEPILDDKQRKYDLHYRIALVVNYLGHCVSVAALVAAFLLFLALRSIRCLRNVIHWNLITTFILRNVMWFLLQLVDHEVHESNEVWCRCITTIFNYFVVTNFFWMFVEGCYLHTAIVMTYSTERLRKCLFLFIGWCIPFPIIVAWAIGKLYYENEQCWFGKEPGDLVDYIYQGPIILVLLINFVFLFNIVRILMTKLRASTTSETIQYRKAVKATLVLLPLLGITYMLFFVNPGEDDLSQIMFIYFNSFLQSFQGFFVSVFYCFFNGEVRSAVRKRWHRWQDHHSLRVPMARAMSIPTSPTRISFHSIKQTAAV


target: T1, human CRH receptor type 2; assay: cell-based or functional assay

| Binder | Log DR against h-SCP, cAMP [log10 ratio] | pA50, cAMP |
| --- | --- | --- |
| TKFTLSLDVPTNIMNLLFNIAKACNLRAQAAANAHLMAQI-NH2 [Cys-variant CRHR2 peptide agonist, SEQ ID NO: 25] | 0.35 | 9.17 -log M |
| TKFTLSLDVPTNIMCLLFNIAKAKNLRAQAAANAHLMAQI-NH2 [Cys-variant CRHR2 peptide agonist, SEQ ID NO: 16] | 0.76 | 8.93 -log M |
| TKFTLSLDVPTCIMNLLFNIAKAKNLRAQAAANAHLMAQI-NH2 [Cys-variant CRHR2 peptide agonist, SEQ ID NO: 13] | -0.01 | 9.59 -log M |
| TKFTLSLDVPTNIMNLLFNIACAKNLRAQAAANAHLMAQI-NH2 [Cys-variant CRHR2 peptide agonist, SEQ ID NO: 23] | 1.13 | 8.55 -log M |
| TKFTLSLDVPTNIMNLLFNIAKAKNLRACAAANAHLMAQI-NH2 [Cys-variant CRHR2 peptide agonist, SEQ ID NO: 30] | 1.28 | 8.4 -log M |
| TKFTLSLDVPTNIMNLLFNIAKAKNLRAQAACNAHLMAQI-NH2 [Cys-variant CRHR2 peptide agonist, SEQ ID NO: 33] | 0.45 | 9.07 -log M |
| TKFTLSLDVPTNIMNLLFNIAKCKNLRAQAAANAHLMAQI-NH2 [Cys-variant CRHR2 peptide agonist, SEQ ID NO: 24] | 0.74 | 8.94 -log M |
| TKFTLSLDVPTNIMNCLFNIAKAKNLRAQAAANAHLMAQI-NH2 [Cys-variant CRHR2 peptide agonist, SEQ ID NO: 17] | 0.02 | 9.5 -log M |
| TKFTLSLDVPTNIMNLLFNIAKAKNLRAQACANAHLMAQI-NH2 [Cys-variant CRHR2 peptide agonist, SEQ ID NO: 32] | 0.11 | 9.41 -log M |
| TKFTLSLDVPTNIMNLLFNICKAKNLRAQAAANAHLMAQI-NH2 [Cys-variant CRHR2 peptide agonist, SEQ ID NO: 22] | 0.52 | 9.17 -log M |
| TKFTLSLDVPTNIMNLLFNIAKAKNLRCQAAANAHLMAQI-NH2 [Cys-variant CRHR2 peptide agonist, SEQ ID NO: 29] | 0 | 9.47 -log M |
| TKFTLSLDVPTNIMNLCFNIAKAKNLRAQAAANAHLMAQI-NH2 [Cys-variant CRHR2 peptide agonist, SEQ ID NO: 18] | 1.11 | 8.41 -log M |
| TKFTLSLDVPTNIMNLLFNIAKAKNLRAQCAANAHLMAQI-NH2 [Cys-variant CRHR2 peptide agonist, SEQ ID NO: 31] | 1.61 | 8.02 -log M |
| TKFTLSLDVPTNIMNLLFNIAKAKNLCAQAAANAHLMAQI-NH2 [Cys-variant CRHR2 peptide agonist, SEQ ID NO: 28] | 0.16 | 9.36 -log M |
| TKFTLSLDVPTNIMNLLFNIAKAKNLRAQAAANCHLMAQI-NH2 [Cys-variant CRHR2 peptide agonist, SEQ ID NO: 35] | 0.7 | 8.93 -log M |
| TKFTLSLDVPTNIMNLLFNIAKAKNLRAQAAACAHLMAQI-NH2 [Cys-variant CRHR2 peptide agonist, SEQ ID NO: 34] | > 3.19 | ~6.32 -log M |
| TKFTLSLDVPTNIMNLLFNIAKAKNCRAQAAANAHLMAQI-NH2 [Cys-variant CRHR2 peptide agonist, SEQ ID NO: 27] | 0.76 | 8.76 -log M |
| TKFTLSLDVPTNIMNLLFCIAKAKNLRAQAAANAHLMAQI-NH2 [Cys-variant CRHR2 peptide agonist, SEQ ID NO: 20] | 0.52 | 9 -log M |
| TKFTLSLDVPTNIMNLLCNIAKAKNLRAQAAANAHLMAQI-NH2 [Cys-variant CRHR2 peptide agonist, SEQ ID NO: 19] | 1.67 | 8.01 -log M |
| TKFTLSLDVPTCIMNLLFNIAKAKNLRAQAAANAHLMAQI (NES-PEG (about 20 kDa) on Cys 12; C-terminal amide) [Pegylated Cys-variant CRHR2 peptide agonist (NES linker, PEG about 20 kDa), SEQ ID NO: 66] | 1.26 | 8.31 -log M |
| TKFTLSLDVPTNCMNLLFNIAKAKNLRAQAAANAHLMAQI (NES-PEG (about 20 kDa) on Cys 13; C-terminal amide) [Pegylated Cys-variant CRHR2 peptide agonist (NES linker, PEG about 20 kDa), SEQ ID NO: 67] | > 3 | ~6.35 -log M |
| TKFTLSLDVPTNIMNLLFNIAKACNLRAQAAANAHLMAQI (NES-PEG (about 20 kDa) on Cys 24; C-terminal amide) [Pegylated Cys-variant CRHR2 peptide agonist (NES linker, PEG about 20 kDa), SEQ ID NO: 78] | ~1.52 | ~7.89 -log M |
